This is an account of results in patent US20230295310A1.

For the assay, the target named is human CD3 expressed on cells (human) (UniProt P07766). The experiment in a line: flow cytometry, 25 nM.
Sequence of human CD3 expressed on cells (human) (P07766 23-207, chain 1 of 3): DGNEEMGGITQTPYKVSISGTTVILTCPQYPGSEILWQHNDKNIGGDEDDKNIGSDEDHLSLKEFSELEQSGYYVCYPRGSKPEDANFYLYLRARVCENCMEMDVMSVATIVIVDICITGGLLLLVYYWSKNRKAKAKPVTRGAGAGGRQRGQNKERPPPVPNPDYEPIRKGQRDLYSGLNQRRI
Sequence of human CD3 expressed on cells (human) (P04234 22-171, chain 2 of 3, further chain): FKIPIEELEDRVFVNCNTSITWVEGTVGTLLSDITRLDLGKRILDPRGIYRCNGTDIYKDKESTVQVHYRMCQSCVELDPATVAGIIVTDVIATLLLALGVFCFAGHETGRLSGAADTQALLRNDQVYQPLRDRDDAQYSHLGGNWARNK
Sequence of human CD3 expressed on cells (human) (P09693 23-182, chain 3 of 3, further chain): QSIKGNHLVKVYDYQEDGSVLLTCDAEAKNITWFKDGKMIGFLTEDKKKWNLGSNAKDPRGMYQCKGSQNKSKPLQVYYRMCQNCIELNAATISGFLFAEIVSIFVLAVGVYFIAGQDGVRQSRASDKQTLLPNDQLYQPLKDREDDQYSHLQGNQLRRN

B1: mAb 109 (antibody, V domains shown)
VH: QVQLVESGGGVVQPGRSLRLSCVASGFPFRSYGMHWVRQAPGKGLEWVAFIWYDGSNKYYADSVRGRFTISRDNFKKMVYLQMNSLRAEDTAVYYCARDLAGIYAFDVWGQGTVVTVSS
VL: EIVMTQSPATLSVSPGERATLSCRASQSVSSNLAWYQQKPGQAPRLLIYGASTRATGIPARFSGSGSGTEFTLTVSSLQSEDFAIYYCQQYNNWRPLTFGGGTKVEIK
Regarding B1, the Human primary T Cell Binding (FOI) worked out at 1.4 FOI.
